From publication PMC6165198

Experiments:
[1] = target: fused glucose-6-phosphate dehydrogenase::6-phosphogluconolactonase (G6PD::6PGL) protein from Giardia lamblia (Giardia lamblia); assay: SEC; Sephacryl 100 (16/60) gel filtration column, 50 mM Tris buffer pH 7.85, flow 0.5 mL/min, calibrated with Bio-Rad gel filtration standards; oligomeric state from the elution volume
[2] = target: fused glucose-6-phosphate dehydrogenase::6-phosphogluconolactonase (G6PD::6PGL) protein from Giardia lamblia (Giardia lamblia)
[3] = target: fused glucose-6-phosphate dehydrogenase::6-phosphogluconolactonase (G6PD::6PGL) protein from Giardia lamblia (Giardia lamblia); assay: SEC; Shodex Protein KW-802.5 column, 50 mM Tris buffer pH 8.75, protein incubated 2 h at 37 °C with either 0.45 M or no Gdn-HCl, flow 0.5 mL/min, calibrated with Bio-Rad standards

- stoichiometry N [1]: 2
- residual G6PD activity after incubation of the enzyme at 0 to 100 µg/mL for 2 h at 37 °C (stability to dilution) [2]: 100%
- stoichiometry N [3]: 2
Substance: fused glucose-6-phosphate dehydrogenase::6-phosphogluconolactonase (G6PD::6PGL) protein from Giardia lamblia (enzyme)
